Values quoted from earlier work, collected in US11419917B2, “Treatment for SARS-CoV-2 and other coronaviruses” (priority 2020, dated 2022).
“Also recorded” adds a separate entry of the source. Read-outs that look alike come from different tables or passages of the source.

Experiments:
[1] = in vivo
[2] = patients treated for 3 days compared to placebo

Row | Molecule | half-life [1] | half-life ([1]; listed as B-type NP) [min] | decrease in infarct size [2] [%]
1 | BNP: B-type natriuretic peptide, a 32-amino acid peptide; generic name Nesiritide | 22 min | 20 | –
2 | ANP: A-type natriuretic peptide, a 28-amino acid peptide degraded from pro ANP | approximately 10 minutes; also recorded: several | – | –
3 | CC[C@H](C)[C@@H]1NC(=O)[C@H](CCCNC(=N)N)NC(=O)[C@H](CC(=O)O)NC(=O)[C@H](CCSC)NC(=O)[C@H](CCCNC(=N)N)NC(=O)CNC(=O)CNC(=O)[C@H](Cc2ccccc2)NC(=O)[C@@H](NC(=O)[C@H](CO)NC(=O)[C@H](CO)NC(=O)[C@H](CCCNC(=N)N)NC(=O)[C@H](CCCNC(=N)N)NC(=O)[C@H](CC(C)C)NC(=O)[C@@H](N)CO)CSSC[C@@H](C(=O)N[C@@H](CC(N)=O)C(=O)N[C@@H](CO)C(=O)N[C@@H](Cc2ccccc2)C(=O)N[C@@H](CCCNC(=N)N)C(=O)N[C@@H](Cc2ccc(O)cc2)C(=O)O)NC(=O)CNC(=O)[C@H](CC(C)C)NC(=O)CNC(=O)[C@H](CO)NC(=O)[C@H](CCC(N)=O)NC(=O)[C@H](C)NC(=O)CNC1=O [Carperitide] | – | – | ~15
